Experimental data from patent publication US7271245B2, “Methods and compositions for inhibition of metastasis” (The Scripps Research Institute, priority 2004, dated 2007).

Legend:
tumor cell integrin αvβ3 = target: T1, tumor cell integrin αvβ3 (Homo sapiens, UniProt P05106+P06756); test: Flow cytometry, scFv binding to BMS cells in fresh human plasma; details: saturable binding
T1 construct: Primary metastatic cells from blood samples of stage IV breast cancer patients (BCM1, BCM2, BMS) were isolated; endogenous in cells; host or cells: BMS cells (primary metastatic breast cancer cells from patient blood)
T1 sequence (P06756 31-889 limits assumed): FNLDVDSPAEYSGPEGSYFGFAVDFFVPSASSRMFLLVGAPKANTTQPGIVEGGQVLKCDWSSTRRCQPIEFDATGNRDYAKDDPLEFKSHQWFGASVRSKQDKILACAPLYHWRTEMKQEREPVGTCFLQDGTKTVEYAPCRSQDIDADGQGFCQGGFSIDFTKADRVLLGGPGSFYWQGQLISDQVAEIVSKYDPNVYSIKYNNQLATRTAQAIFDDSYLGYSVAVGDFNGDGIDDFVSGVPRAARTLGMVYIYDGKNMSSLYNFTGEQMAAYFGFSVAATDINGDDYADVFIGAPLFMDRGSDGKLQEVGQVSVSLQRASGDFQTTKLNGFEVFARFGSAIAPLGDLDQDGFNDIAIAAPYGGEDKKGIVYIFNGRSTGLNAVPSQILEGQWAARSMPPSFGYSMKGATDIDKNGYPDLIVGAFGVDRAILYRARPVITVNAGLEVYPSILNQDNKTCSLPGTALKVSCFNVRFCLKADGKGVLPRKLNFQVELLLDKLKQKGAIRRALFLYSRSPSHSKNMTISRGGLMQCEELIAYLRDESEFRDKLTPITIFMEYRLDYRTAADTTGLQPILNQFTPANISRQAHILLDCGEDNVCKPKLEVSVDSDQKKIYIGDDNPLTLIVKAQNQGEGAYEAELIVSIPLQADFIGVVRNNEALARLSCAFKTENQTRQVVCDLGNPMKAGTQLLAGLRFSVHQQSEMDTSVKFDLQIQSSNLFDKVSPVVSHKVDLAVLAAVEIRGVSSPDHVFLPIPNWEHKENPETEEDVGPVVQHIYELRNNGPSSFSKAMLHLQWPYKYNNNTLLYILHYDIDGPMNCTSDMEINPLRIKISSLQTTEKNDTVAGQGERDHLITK
T1 sequence (P06756 891-1048 partner limits assumed): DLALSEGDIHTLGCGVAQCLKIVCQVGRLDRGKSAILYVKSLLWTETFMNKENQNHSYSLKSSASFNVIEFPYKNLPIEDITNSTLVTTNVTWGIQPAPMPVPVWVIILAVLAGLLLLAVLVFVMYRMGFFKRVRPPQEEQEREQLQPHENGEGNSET
T1 sequence (P05106 27-788): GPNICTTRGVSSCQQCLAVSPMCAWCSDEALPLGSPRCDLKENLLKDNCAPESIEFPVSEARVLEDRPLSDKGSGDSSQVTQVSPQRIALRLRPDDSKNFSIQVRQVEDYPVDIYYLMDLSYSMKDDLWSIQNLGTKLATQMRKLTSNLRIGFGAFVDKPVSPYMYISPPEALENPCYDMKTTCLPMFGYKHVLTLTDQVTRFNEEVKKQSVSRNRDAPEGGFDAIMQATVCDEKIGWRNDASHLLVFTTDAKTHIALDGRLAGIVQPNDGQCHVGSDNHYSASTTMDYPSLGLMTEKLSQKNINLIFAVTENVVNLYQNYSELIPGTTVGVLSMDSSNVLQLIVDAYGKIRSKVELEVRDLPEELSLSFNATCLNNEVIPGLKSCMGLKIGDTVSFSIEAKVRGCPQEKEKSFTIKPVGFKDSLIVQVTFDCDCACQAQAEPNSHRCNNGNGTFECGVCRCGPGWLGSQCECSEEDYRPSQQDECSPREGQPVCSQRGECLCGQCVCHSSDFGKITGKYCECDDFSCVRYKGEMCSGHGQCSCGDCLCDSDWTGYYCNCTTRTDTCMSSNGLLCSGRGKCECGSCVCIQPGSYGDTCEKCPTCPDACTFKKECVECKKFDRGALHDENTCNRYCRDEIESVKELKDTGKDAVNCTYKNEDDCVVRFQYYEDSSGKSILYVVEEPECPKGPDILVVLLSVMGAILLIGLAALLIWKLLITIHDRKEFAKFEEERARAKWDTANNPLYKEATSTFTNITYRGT
Method: FIG. 4. Patient derived ligand mimetic scFvs Bc-12 and Bc-15 against activated αvβ3 are internalized and bind to breast cancer cells in human plasma and affect breast cancer survival. Flow cytometric analysis with human metastatic breast cancer cells (BMS) isolated from a patient blood sample. All binding and washing steps were done in fresh human plasma prepared from blood anticoagulated with 50 nM PPACK.
Flow cytometry. scFv binding to human tumor cells was analyzed by flow cytometry, initially with cloned scFv phage and then with purified scFv protein. Per sample, 2×10^5 tumor cells were blocked with goat serum and incubated either with scFv phage (2-5×10^10) (1 h at RT) followed by mouse anti-M13 mAb (Serotec) (30 min on ice) and goat FITC-anti mouse (Pierce) (30 min on ice), or with purified scFv (1.25 to 40 μg/ml, routinely 10 to 15 μg/ml) (45 min on ice), followed by mouse anti-FLAG mAb M2 (Sigma) (30 min on ice) and goat FITC-anti mouse. […] All samples were counter stained with propidium iodide (PI) and analyzed on a Becton-Dickinson FACScan, with live gate set to exclude PI positive cells.
Antimetastatic activity of scFv antibodies against activated αvβ3 inhibit hematogenous breast cancer metastasis in vivo. […] The antibodies bound the cells in a saturable manner with half maximal binding measured at 40 nM scFv (1 μg/ml) (FIG. 4).

[1] = system: BMS human breast cancer cells; test: Tumor cell adhesion under stationary conditions; type: cell-based; details: 3 μM scFv
Method: FIGS. 3A, 3B, 3C, 3D, 3E. scFv Bc-12 and Bc-15 inhibit αvβ3 mediated adhesive breast cancer cell functions. (A) Adhesion of BMS human breast cancer cells to fibrinogen (Fg), vitronectin (VN) or type I collagen (Col I) in the absence or presence of 3 μM Bc-12, Bc-15 or their RGE mutants Mut-12, Mut-15, compared to 200 μM GRGDSPK peptide (SEQ ID NO: 11). Protein coating concentrations: 10 μg/ml (VN, Col I) or 20 μg/ml (Fg). Adhesion time: 30 min at 37° C. (B) Effect of scFvs on haptotactic BMS cell migration toward a fibrinogen substrate (16 hrs at 37° C. in transwell chambers with or without 2 μM Bc-12, Bc-15 or their RGE mutants Mut-12 or Mut-15, compared to 200 μM GRGDSPK peptide) (SEQ ID NO: 11). (C) Effect of scFvs on breast cancer cell arrest during blood flow. Metastatic BMS cells, labeled with hydroethidine, were suspended in human blood (anticoagulated with 50 nM PPACK) and perfused over a collagen I matrix at a venous wall shear rate of 50 s^−1. Under these conditions, breast cancer cells arrest by αvβ3 mediated binding to adherent, thrombus forming platelets. Tumor cell adhesion was quantified by image acquisition at 30 predefined positions during blood flow. Left: representative images of platelet signal (thrombi, green fluorescence) and tumor cell signal (red fluorescence) at identical x,y positions. Right: Number of arrested tumor cells in the presence of 3 μM non-function blocking anti αv scFv Bc-20 or function blocking anti αvβ3 scFvs Bc-12 or Bc-15. (D) scFv Bc-15 is internalized by human breast cancer cells and reduces cell proliferation. Left: confocal images of BMS cells incubated for 4 hrs with FITC-Bc-15 at 4° C. (binding) versus 37° C. (allowing internalization). Right: Phase contrast images of BMS cell cultures 4 days after seeding in the presence of 2 μM RGE containing scFv Mut-15, or RGD containing Bc-15. (E) Effect of scFv Bc-12 on the viability of matrix deprived BMS breast cancer cells in ultra-low-adhesion plates in the presence or absence of 3.7 μM scFv, or 14.36 μM camptothecin as apoptosis inducing control. Measurement of apoptosis was based on cytoplasmic histone-associated DNA fragments after 20 hrs.
Cell adhesion and migration. Tumor cell adhesion under stationary conditions was analyzed as detailed earlier (19). Adhesion buffer was Hanks balanced salt solution (HBSS) pH 7.4, 0.5% BSA, 1 mM MgCl2, 0.2 mM MnCl2. For inhibition, cells were incubated for 5 min at RT either with 3 μM scFv or 200 μM GRGDSPK (SEQ ID NO: 11) peptide, then plated in the presence of inhibitor and allowed to attach for 30 min at 37° C. Haptotactic tumor cell migration toward fibrinogen was analyzed in transwell chambers as detailed earlier. Rolli, M., et al., Proc. Natl. Acad. Sci. U.S.A 100: 9482-9487, 2003. […]

- half maximal binding (tumor cell integrin αvβ3): 1 µg/mL
- EC50 (tumor cell integrin αvβ3; read-out: half maximal binding): 40 nM
B1: Bc-12: patient derived human scFv antibody against activated αvβ3 with RGD motif in CDR-H3; cDNA ATCC PTA-6303 (protein)
scFv: MAQVQLVQSGAEVKKPGASVKVSCKASGYTFSNYGITWVRQAPGQGLEWMGWINNGNTHYAQKFQGRVTMTTDTSTSTAYMELRSLRSDDTAVYYCARDPRGDDEPYWGQGTLVTVSSGGGGSGGGGSGGGGSEIVLTQSPLSLPVTLGQPASISCRSSQNLVYSDGNTYLSWFQQRPGQSPRRLIYKVSNRDSGVPDRFSGSGSGTDFTLKISRVEAEDIGVYYCMQGTHWPPRTFGQGTKVEIKRGLGGLVDYKDDDDK
- adhesion to collagen type I [1]: no effect
- attachment to vitronectin [1]: inhibited by Bc-12 and Bc-15, but to a lesser degree
- adhesion to immobilized fibrinogen ([1]; 30 min at 37° C.): efficiently inhibited
